Laboratory results from article PMC7573561.

Molecular target: Actin (coated on BLI biosensors)
Assay: BLI; Octet RED, 25 C; APS (aminopropylsilane) biosensors coated with 10 ug/mL actin; rPDCP-1 in PBS pH 7.4 with 0.05% Tween 20 and 0.1% BSA; 300 s association, 120 s dissociation

- Kd: 783 nM
Substance: Recombinant PDZ-domain-containing-protein-1 (rPDCP-1) (natural protein)
